Data on three molecules can be found in patent US11905559B2, “Materials and methods for controlling gene expression” (priority 2016, dated 2024).

Data set [1] in a line: Isothermal titration calorimetry (ITC). The class given is binding. To be noted: for Kd: 50 mM K^+ Hepes pH 7.5, 100 mM KCl, 10 mM MgCl2, read-out: KD for guanine. The procedure:
For ITC experiments, wild-type G-aptamer and the mutant RNAs were synthesized by in vitro transcription of the DNA template and purified by denaturing polyacrylamide gel electrophoresis (PAGE). The ligand guanine was introduced in the syringe, while the RNA into the sample cell at a final concentration of 10 μM and 1 μM respectively. The concentrations were determined by absorbance reading using ε260=12010 M^−1 cm^−1 (guanine) and ε260=711400 M^−1 cm^−1 (RNA). The buffer in the syringe and the sample cell contained 50 mM K^+ Hepes (pH 7.5), 100 mM KCl, and 10 mM MgCl2. Binding reactions were performed at 30° C. on a MicroCal iTC200 instrument (Malvern) with a reference power of 6 μcal/sec, an initial delay of 60 secs and a stirring speed of 750 rpm. Guanine was titrated into the sample cell in 16 injections (2.5 μl each). The injection rate was 0.5 μl/sec and the spacing between the injections was maintained at 120 sec. Data was baseline corrected and fitted to a single-site binding model to obtain association constant (KA), stoichiometry (n) and binding enthalpy, ΔH. The dissociation constant (KD) and the binding free energy, ΔG was obtained from the fitted parameters using the following relations. All data analysis was performed using the Origin ITC software.
The ITC results are reported as mean±standard deviation from three independent experiments.
On the technique in general: Isothermal titration calorimetry measures the heat released or taken up as one component is titrated into another.

Data set [2] is described as follows: Constant-force (CF) single-molecule optical tweezers folding assay of guanine-aptamer RNAs in guanine buffer. The class given is physicochemical. To be noted: for ΔG (0): zero force. The source says: The aptamer folding was monitored in real time using a constant-force (CF) assay. Equilibrium sampling techniques provide unprecedented insights into the rare events in the course of folding that are otherwise difficult to identify. The technique also allows for determination of the kinetic rates that has not been fully investigated in the guanine riboswitch. The relative dynamics of the helices have been investigated in ensemble and smFRET experiments, which indicated a non-dynamic P1-P3, upon which the P2 helix switches conformations. As shown in FIG. 6A (left panel), the RNA oscillated between the linear and the hairpin conformations (E↔D↔C) at 13 pN. The distances ΔXED=7.1±0.4 nm and ΔXDC=7.9±0.4 nm correspond to the folding of a 17±1 nt (P2) and 19±1 nt (P3) respectively (FIGS. 7A-B). The conversion of distances to nucleotides in CF assay are described in Table 2.
A miniaturized dual beam optical tweezers instrument was constructed with a sampling rate of 0.4, 4 and 40 kHz. Typically, in the tweezers set up (FIGS. 2A-E), a single-molecule of RNA is held between two beads via ˜550 nucleotide (nt) long Handles A and B. Preparation of Handles and the RNA is described in the section above. The streptavidin coated polystyrene bead (diameter 1.5-1.9 μm, Spherotech Inc.) is fixed on a micropipette via suction, and the anti-digoxigenin coated bead (diameter 4.0-4.9 μm, Spherotech Inc.) is held in the dual counter-propagating laser beam. The trap stiffness, K is measured at 0.04-0.06 pN/nm from the power spectrum analysis of the Brownian motion of the trapped bead. For power spectrum analysis, a polystyrene bead with diameter ˜4.6 μm is trapped in the counter-propagating laser beam in aqueous buffer with a fixed trap position. […] The average from 10 beads yielded K˜0.049±0.0008 pN/nm, and the stoke's drag coefficient, y=0.0364±0.0002 pN. s/μm. […] However, the autocorrelation time (τ0) defined as the τ1=1/2πfc as described by Zoldak et al., “Ultrafast folding kinetics and cooperativity of villin headpiece in single-molecule force spectroscopy”. Proc. Natl. Acad. Sci. U.S.A 110, 18156 (2013) sets the detection limit for the observable kinetics, which is different from the sampling frequencies. […] The ACF for the time series of force signal, Fi, with sampling rate δ and N data points, is calculated as,
In a constant-force (CF) experiment, the RNA is held at a preset force through feedback control. The preset force typically fluctuated around the mean with a standard deviation ±0.15 pN. In this mode, data is recorded from 4-40 kHz to capture the fast intermediates. The plots are shown as extension vs. time (as in FIG. 6A). In force-jump (FJ) assay, the force is suddenly jumped from one force to another, and then held constant thereafter, as shown in FIGS. 23A-B.
All FR, CF and FJ experiments were carried out at an ambient temperature, 25±0.5° C. The buffer in the microfluidics contained 10 mM Tris-HCl, pH 7.5 at 25° C., 250 mM NaCl, 3 mM MgCl2, and purine concentrations as indicated in wild-type aptamer. Unless stated otherwise, Mg^2+ concentration in the buffer was maintained at 3 mM in all experiments. The buffer in mutant m1 contained 5 mm Mg^2+ and 1 μM G, and in m3 contained 5 mM Mg^2+ and 200 nM Guanine. For the remaining m2, m4, m5 and m6 mutants, the buffer in single-molecule experiments was supplemented only with 3 mM Mg^2+ and 200 nM Guanine.
In the force-ramp experiment, the trap was moved away (pull cycle) from the micropipette at 200 nm/sec, which corresponded to a loading rate of 7-8 pN/sec. This movement of the trap exerted a tension at the ends of the tethered RNA aptamer. […] In the constant-force (CF) experiment, the RNA was held at a preset force (FIG. 6A). The loading rate in CF experiments was zero. The preset force typically fluctuated around the mean with standard deviation ±0.15 pN. […]

The mark [3] stands for this setting: transition C′A (merged C′B and BA), F 6.1 pN, 5 mM Mg^2+, 1 uM G.
Setting [4] is: transition DC (P3 folding), F 12.0 pN, 5 mM Mg^2+, 1 uM G.
Where [5] appears, read: transition ED (P2 folding), F 13.5 pN, 5 mM Mg^2+, 1 uM G.
[6] abbreviates: transition BA (P1 folding), 3 mM Mg^2+, 200 nM G (rates at 8.5 pN).
The mark [7] stands for this setting: transition BA (P1 folding), F 8.5 pN, 3 mM Mg^2+, 200 nM G.
The mark [8] stands for this setting: transition BA (P1 folding), F 8.5 pN, 3 mM Mg^2+, 200 nM G, no helix width adjustment.
[9] abbreviates: transition BA (P1 folding), from data at 8.5 pN, 3 mM Mg^2+, 200 nM G.
Setting [10] is: transition C′B (L2-L3 folding), 3 mM Mg^2+, 200 nM G (rates at 8.5 pN).
[11] abbreviates: transition C′B (L2-L3 folding), F 8.5 pN, 3 mM Mg^2+, 200 nM G.
Where [12] appears, read: transition C′B (L2-L3 folding), from data at 8.5 pN, 3 mM Mg^2+, 200 nM G.
The mark [13] stands for this setting: transition DC (P3 folding), 3 mM Mg^2+, 200 nM G (rates at 13 pN).
The mark [14] stands for this setting: transition DC (P3 folding), F 13 pN, 3 mM Mg^2+, 200 nM G.
Setting [15] is: transition DC (P3 folding), from data at 13 pN, 3 mM Mg^2+, 200 nM G.
[16] abbreviates: transition ED (P2 folding), 3 mM Mg^2+, 200 nM G (rates at 13 pN).
The mark [17] stands for this setting: transition ED (P2 folding), F 13 pN, 3 mM Mg^2+, 200 nM G.
Setting [18] is: transition ED (P2 folding), from data at 13 pN, 3 mM Mg^2+, 200 nM G.

As usually defined, the Kd is the constant that tells how readily two partners part at equilibrium.

Positions count from the first letter of the chain named. Numbers in names are those of the source. Where “and” joins values, the source holds several entries; their conditions need not be identical. Equal values may be shown once.

B1: m1: m1 mutant guanine sensing aptamer RNA (SEQ ID NO: 2); G37 replaced with adenine in the L2 loop (nucleic acid)
chain: CACUCAUAUAAUCGCGUGGAUAUAGCACGCAAGUUUCUACCGGGCACCGUAAAUGUCCGACUAUGGGUG
modifications: RNA, backbone and methylation of C not given here
notes: G37 replaced with adenine in the L2 loop
In the case of B1, the “KD off relative to wild-type” value in data set [1] came out at 35 fold. In addition, the “ΔG of guanine binding” value in data set [1] (30° C.) was -9.52 ± 0.22 kcal/mol. In addition, the “Equilibrium force F^eq” value is 6 pN and 6.0 ± 0.03 pN in data set [2] (transition C′A (merged C′B and BA), 5 mM Mg^2+, 1 uM G (rates at 6.1 pN)); 12.2 ± 0.01 pN in data set [2] (transition DC (P3 folding), 5 mM Mg^2+, 1 uM G (rates at 12.0 pN)); 13.4 ± 0.01 pN in data set [2] (transition ED (P2 folding), 5 mM Mg^2+, 1 uM G (rates at 13.5 pN)). Besides, the Folding rate kf in data set [2] (setting [3]) came to 0.6 ± 0.05 s⁻¹; in data set [2] (setting [4]) it was 20.7 ± 0.4 s⁻¹; in data set [2] (setting [5]), 11.8 ± 0.3 s⁻¹. The entries for the “Transition distance ΔX” value in data set [2] (setting [3]), in data set [2] (setting [4]) and in data set [2] (setting [5]) were 12.4 ± 0.3 nm, 7.7 ± 0.3 nm and 7.2 ± 0.2 nm, respectively. The values for the Unfolding rate ku in data set [2] (setting [3]), in data set [2] (setting [4]) and in data set [2] (setting [5]) were 0.6 ± 0.05 s⁻¹, 15.2 ± 0.3 s⁻¹ and 15.1 ± 0.3 s⁻¹, respectively. Moreover, the “ΔG (0)” value in data set [2] (transition C′A (merged C′B and BA), from data at 6.1 pN, 5 mM Mg^2+, 1 uM G) is listed as −12.4 ± 0.5 kBT; in data set [2] (transition DC (P3 folding), from data at 12.0 pN, 5 mM Mg^2+, 1 uM G), −15.9 ± 0.9 kBT; in data set [2] (transition ED (P2 folding), from data at 13.5 pN, 5 mM Mg^2+, 1 uM G) it was −16.6 ± 0.7 kBT.

B2: m6: m6 mutant guanine sensing aptamer RNA (SEQ ID NO: 7); U67A, shorter P3 hairpin and larger L3 loop (nucleic acid)
chain: B1 chain with A24G, U54A
modifications: RNA, backbone and methylation of C not given here
notes: U67A, shorter P3 hairpin and larger L3 loop
Take B2: in data set [1] (30° C.), the Kd is 6.7 ± 0.63 nM. The “L2-L3 kissing faster than wild-type” value in data set [2] (C′B folding rate) amounted to 8.33 times. In addition, the “Equilibrium force F^eq” value in data set [2] (setting [6]) stood at 8.3 ± 0.3 pN; in data set [2] (setting [10]) it was 7.2 ± 0.5 pN; in data set [2] (setting [13]), 10.6 ± 0.1 pN; in data set [2] (setting [16]), 13.8 ± 0.03 pN. In addition, the Folding rate kf in data set [2] (setting [7]) was 0.7 ± 0.02 s⁻¹; in data set [2] (setting [11]) it was 7.5 ± 0.2 s⁻¹; in data set [2] (setting [14]), 1.1 ± 0.03 s⁻¹; in data set [2] (setting [17]), 23.9 ± 0.5 s⁻¹. For the same molecule, the Unfolding rate ku in data set [2] (setting [7]) came out at 1.0 ± 0.1 s⁻¹; in data set [2] (setting [11]) it was 23.9 ± 0.6 s⁻¹; in data set [2] (setting [14]) it was 115.4 ± 4.4 s⁻¹; in data set [2] (setting [17]) it was 7.2 ± 0.2 s⁻¹. Also, the “Transition distance ΔX” value is recorded as 9.8 ± 0.2 nm in data set [2] (setting [8]), 3.5 ± 0.2 nm in data set [2] (setting [11]), 7.3 ± 0.1 nm in data set [2] (setting [14]) and 7.1 ± 0.1 nm in data set [2] (setting [17]). Further, the “ΔG (0)” value is −13.9 ± 0.4 kBT in data set [2] (setting [9]); −6.1 ± 0.4 kBT in data set [2] (setting [12]); −11.1 kBT and −11.1 ± 0.3 kBT in data set [2] (setting [15]); −17.1 ± 0.3 kBT in data set [2] (setting [18]).

B3: m4: m4 mutant guanine sensing aptamer RNA (SEQ ID NO: 5); A59G/U67C in the P3 hairpin (nucleic acid)
chain: B1 chain with A24G, A46G, U54C
modifications: RNA, backbone and methylation of C not given here
notes: A59G/U67C in the P3 hairpin
For the molecule B3, the Kd in data set [1] (30° C.) was 3.59 ± 0.05 nM. In addition, the “L2-L3 kissing rate reduced versus wild-type” value in data set [2] (C′B folding rate) is 4.5 fold. In addition, the “Barrier ΔGkiss^‡ prior to the L2-L3 interactions” value in data set [2] (free energy landscape transformed to zero force) is on record as around 8.4 kBT. Moreover, the “Equilibrium force F^eq” value was found to be 8.0 ± 0.1 pN in data set [2] (setting [6]), 7.6 ± 0.1 pN in data set [2] (setting [10]), 13.0 ± 0.02 pN in data set [2] (setting [13]) and 13.9 ± 0.01 pN in data set [2] (setting [16]). Further, the Folding rate kf stood at 0.33 ± 0.02 s⁻¹ in data set [2] (setting [7]), 0.22 ± 0.02 s⁻¹ in data set [2] (setting [11]), 16.3 ± 0.3 s⁻¹ in data set [2] (setting [14]) and 34.8 ± 1.1 s⁻¹ in data set [2] (setting [17]). In addition, the Unfolding rate ku was found to be 1.0 ± 0.1 s⁻¹ in data set [2] (setting [7]), 0.56 ± 0.04 s⁻¹ in data set [2] (setting [11]), 16.5 ± 0.4 s⁻¹ in data set [2] (setting [14]) and 8.8 ± 0.2 s⁻¹ in data set [2] (setting [17]). The “Transition distance ΔX” value in data set [2] (setting [8]) worked out at 9.5 ± 0.3 nm; in data set [2] (setting [11]), 3.4 ± 0.1 nm; in data set [2] (setting [14]), 7.8 ± 0.2 nm; in data set [2] (setting [17]), 7.2 ± 0.2 nm. Further, the “ΔG (0)” value was −12.5 kBT and −12.5 ± 0.6 kBT in data set [2] (setting [9]); −6.1 ± 0.2 kBT in data set [2] (setting [12]); −17.3 ± 0.6 kBT in data set [2] (setting [15]); −17.6 ± 0.6 kBT in data set [2] (setting [18]). Besides, the “Increase of P3 stability ΔG(0) versus wild-type” value in data set [2] (transition DC) was determined as 1 kT.
